Results taken from the supplement of paper PMC10567573.
± gives the standard deviation.

Test: protein stability index of a GFP-peptide fusion (GPS, HEK-293T) (PSI 1-6); higher = more stable
[1] = treatment: DMSO, c terminus: a fixed tail appended
[2] = treatment: MLN4924 1 uM, 8 h, c terminus: a fixed tail appended
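Note: 24-mer peptide tiles fused after GFP, lentivirally expressed, FACS-sorted into six equal bins by GFP/DsRed ratio, decoded by Illumina sequencing, PSI is the read-weighted mean bin number.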

| Sequence | protein stability index [1] | protein stability index [2] | protein stability index (treatment: DMSO, c terminus: native) | protein stability index (treatment: MLN4924 1 uM, 8 h, c terminus: native) |
| --- | --- | --- | --- | --- |
| RNTSWGVVQEPPGRASRFLQSISW [TLE6] | 2.47 ± 0.28 | 2.46 ± 0.3 | – | – |
| RNVTGTPLTGDKDDEEVDTHFASQ [ADAMTSL2] | 5.5 ± 0.22 | 5.32 ± 0.27 | – | – |
| RPEELLQMELLLVNKLKWNLAAMT [CCND1] | 2.68 ± 0.71 | 2.52 ± 0.66 | – | – |
| RPLARPIKPNEILPPEKGREVAKE [RHOBTB2] | 4.91 ± 0.16 | 4.68 ± 0.66 | – | – |
| RPMSEPGAGAGSSLLDVAEPGGPG [SMAD6] | 5.11 ± 0.3 | 5.39 ± 0.16 | – | – |
| RQDPRPHGPQLPTGIEGNWGRLLE [ZBED2] | 3.68 ± 0.2 | 3.54 ± 0.32 | – | – |
| RQEYQKALQEYSSISEKLSSTNFA [C8orf76] | 3.48 ± 0.26 | 3.69 ± 0.18 | – | – |
| RQIVSGLKYLHEQEILHRDLKLGN [PLK2] | 2.52 ± 0.21 | 2.7 ± 0.48 | – | – |
| RQKREAAARKKYNLLQDSSTSDSD [C18orf25] | 5.17 ± 0.25 | 5.18 ± 0.15 | – | – |
| RQMHLARFLRMLLRLADEFGVAVV [RAD51] | 2.55 ± 0.41 | 2.68 ± 0.28 | – | – |
| RQRCMPEEDLQSQSETQGLEGAQA [MAGEA10] | 5.44 ± 0.28 | 5.44 ± 0.082 | – | – |
| RREAVQRGRMPPTQPTHGQFALTN [NR2F2] | 3.9 ± 0.29 | 3.99 ± 0.25 | – | – |
| RRERNNIAVRKSRDKAKMRNLETQ [CEBPB] | 4.28 ± 0.18 | 4.5 ± 0.19 | – | – |
| RRMAESLRIPEGPIDQGPAIGRVR [FUT8] | 4.22 ± 0.17 | 4.43 ± 0.18 | – | – |
| RRTAENKLDTKYPYVCHAELNAIM [DCTD] | 2.29 ± 0.15 | 2.37 ± 0.49 | – | – |
| RRVWSPPRVHKVEMGFGGGGGAN [ZBTB22] | – | – | 4.13 ± 0.3 | 3.92 ± 0.14 |
| RSAMSGASQPRGPALLFPATRGVP [TRIB1] | 3.554 ± 0.019 | 4.14 ± 0.29 | – | – |
| RSCGGGVTSQERHCLQQRRKSVPG [ADAMTSL2] | 4.58 ± 0.25 | – | – | – |
| RSKESKDCSGLVLLCLFFGIPWEA [PCDHGA10] | 3.15 ± 0.37 | 2.48 ± 0.61 | – | – |
| RSRSLDIQPSSEGLGPTSEPFPSS [SPAG8] | 5.46 ± 0.23 | 5.52 ± 0.094 | – | – |
| RSSEFYRVTTEQYQKAAEEVEAKF [CHCHD3] | 4.88 ± 0.32 | 4.78 ± 0.074 | – | – |
| RTFGPPPSLSPGAFSYSSSSRFSS [PRPH] | 3.42 ± 0.21 | 3.8 ± 0.3 | – | – |
| RTQEEKLEHVRALIKKYSDHLENV [TRIM55] | 3.24 ± 0.31 | 3.56 ± 0.27 | – | – |

| Sequence | protein stability index [1] | protein stability index [2] | protein stability index (treatment: DMSO, c terminus: native) | protein stability index (treatment: MLN4924 1 uM, 8 h, c terminus: native) |
| --- | --- | --- | --- | --- |
| RTVAIWDVAEGYRKLSLKGHNDWV [WDR88] | 2.46 ± 0.38 | 2.54 ± 0.44 | – | – |
| RVEESALRALREKLFAHSSDLLSE [PPEF2] | 2.96 ± 0.49 | 3.27 ± 0.32 | – | – |
| RVFRVTFLMLAVSLTVPLLGAMML [APMAP] | 2.2 ± 0.43 | 2.4 ± 0.55 | – | – |
| RWLDESDAEMELRAKEEERLNKLR [HACD3] | 4.5 ± 0.3 | 4.84 ± 0.42 | – | – |
| RWPFDHNDFGVFLCKLFPFLQKSS [EDNRA] | 2.2 ± 0.19 | 2.05 ± 0.38 | – | – |
| RYAVVLNATWLVNSAAHLFGYRPY [SCD] | 2.9 ± 0.65 | 3.05 ± 0.47 | – | – |
| SADRLTVRCGLLGSLGPVPVLRFD [TRIM14] | 2.12 ± 0.31 | 2.25 ± 0.31 | – | – |
| SAETSGGLLICLPREQAARFCSEI [SEPHS2] | 2.31 ± 0.27 | 2.18 ± 0.26 | – | – |
| SAKDGGPQPPDAPQLVSSAREGSS [PLEKHN1] | 5.49 ± 0.19 | 5.39 ± 0.17 | – | – |
| SAKPASLRLLQHTPSARRNYRIAG [C6orf223] | 3.43 ± 0.24 | 3.75 ± 0.22 | – | – |
| SCNTWPSMPSYSSCTVTTVQPMDR [TBX5] | 3.11 ± 0.14 | 3.09 ± 0.19 | – | – |
| SCPFFETSAAYRYYIDDVFHALVR [RIT1] | 2.41 ± 0.36 | 2.54 ± 0.38 | – | – |
| SCQSFISWTGDGWEFKLSDPDEVA [ETS1] | 3.12 ± 0.13 | 3.06 ± 0.31 | – | – |
| SDCCRKLLSSGFEIDTPDKFGRTC [ANKRD44] | 2.8 ± 0.27 | 2.97 ± 0.33 | – | – |
| SDHCITSSDMMDSSSFSNLDLSEE [VDR] | 5.48 ± 0.13 | 5.42 ± 0.16 | – | – |
| SDLNVVASFDRRGEYIYTGNAKGK [RBBP5] | 4.32 ± 0.6 | 4.4 ± 0.26 | – | – |
| SDSMTDVPVDTGVAARTPAVEGLT [TPD52L2] | 5.3 ± 0.29 | 5.26 ± 0.15 | – | – |
| SDYESIEVPDSYTGPRLSFPLLPD [PPEF2] | 4.13 ± 0.19 | 4.09 ± 0.15 | – | – |
| SEEAAVLQYASLVGQKCSERMLLF [ATE1] | 2.37 ± 0.4 | 2.19 ± 0.34 | – | – |
| SEEMVKMVLSRPCHPDDQFTTSIL [INTS3] | 2.94 ± 0.34 | 2.98 ± 0.39 | – | – |
| SEKTDESDTIPYLKKFLYNFDNPW [MIA2] | 2.78 ± 0.14 | 2.11 ± 0.039 | – | – |
| SESPGSLSEVLAQPQGALAPPNCE [DNAAF3] | 5.44 ± 0.1 | 5.17 ± 0.17 | – | – |
| SFVYGAVPIGASIYVIGDLDTGTN [GAN] | 2.35 ± 0.32 | 2.29 ± 0.61 | – | – |

| Sequence | protein stability index [1] | protein stability index [2] | protein stability index (treatment: DMSO, c terminus: native) | protein stability index (treatment: MLN4924 1 uM, 8 h, c terminus: native) |
| --- | --- | --- | --- | --- |
| SGEKYDPDANTWTALPPMNEARHN [GAN] | 4.61 ± 0.55 | 4.8 ± 0.13 | – | – |
| SGGGGGGGGGGGGGKSGGIVISPF [CCDC6] | 3.53 ± 0.41 | 3.37 ± 0.23 | – | – |
| SGHGDAHLQEYAGNFQGIRFHYDR [FATE1] | 3.32 ± 0.17 | 3.33 ± 0.1 | – | – |
| SGLGSCLPGSYLSSECHTSGFVGS [KRT36] | 2.62 ± 0.32 | 2.69 ± 0.23 | – | – |
| SHLCSCLAMLALLSPLSLAQYDSW [LOXL2] | 3.02 ± 0.29 | 2.96 ± 1.2 | – | – |
| SIERSHRIATETDQIGSEIIEELG [VTI1B] | 4.88 ± 0.33 | 5 ± 0.2 | – | – |
| SILLCLLASGLVVFFLFPHSVLVD [TMEM106C] | 3 ± 0.49 | 2.56 ± 0.044 | – | – |
| SINVMKQLIGSSNLFVMQVEMDIY [GMCL1] | 2.98 ± 0.49 | 2.82 ± 0.73 | – | – |
| SIPLERIHFDSYITCVSGAIVDLI [FBXO33] | 2.44 ± 0.42 | 2.26 ± 0.42 | – | – |
| SIQWPGKRSSRRVQRHNSFSPNSP [NECAB1] | 3.54 ± 0.27 | 3.62 ± 0.23 | – | – |
| SIYGIPHSTLEYKVKERLGTLKNP [LCOR] | 3.12 ± 0.31 | 3.2 ± 0.52 | – | – |
| SKAGPTRIFTSNTHSSVVLQGFDQ [KLHL13] | 3.53 ± 0.32 | 3.32 ± 0.12 | – | – |
| SLENTLTESEAHYSSQLSQVQSLI [KRT34] | 3.32 ± 0.093 | 3.42 ± 0.31 | – | – |
| SLMDLAIEEGFNPVQASQLEEEFD [NFE2L1] | 5.35 ± 0.35 | 5.49 ± 0.12 | – | – |
| SLQFDEKCLSIMLAEWEANPLICP [RPAIN] | 2.33 ± 0.24 | 2.29 ± 0.18 | – | – |
| SLRKGASLSNGQGSRVLHVVQTLY [NCK2] | 2.29 ± 0.26 | 2.57 ± 0.11 | – | – |
| SLRKSNTLCDVTLRVEQKDFPAHR [KLHL12] | 3.58 ± 0.3 | 3.91 ± 0.38 | – | – |
| SMAMEYFDEKIVPILKRKLPGSDV [FBXO28] | 3 ± 0.22 | 3.25 ± 0.073 | – | – |
| SMEVFTHYDLLNLNGTKVAEGHKA [LOXL2] | 4.39 ± 0.16 | 3.85 ± 0.42 | – | – |
| SMLSKNPEDRPSLDDIIRHDFFLQ [PLK2] | 3 ± 0.21 | 3.19 ± 0.32 | – | – |
| SNGFPERDPPRPGPSRPAEKPPRP [GCH1] | 5 ± 0.1 | 4.99 ± 0.082 | – | – |
| SNPNGNGGFMGYSAENIPGCSSSG [CRY1] | 4.57 ± 0.24 | 4.34 ± 0.35 | – | – |
| SNSEKAKNIFRIRFHDPSPAQSHT [NET1] | 3.13 ± 0.2 | 3.06 ± 0.37 | – | – |

| Sequence | protein stability index [1] | protein stability index [2] | protein stability index (treatment: DMSO, c terminus: native) | protein stability index (treatment: MLN4924 1 uM, 8 h, c terminus: native) |
| --- | --- | --- | --- | --- |
| SPVVAMTSRRSGVGLAVVNGQLMA [KLHL20] | 2.88 ± 0.36 | 2.95 ± 0.43 | – | – |
| SQITDSEHNSSLVSQQTGSPGKQP [ZNF8] | 5.33 ± 0.16 | 5.26 ± 0.23 | – | – |
| SQLSVLSLSGVMLTDVSPEPLQAL [PRAME] | 2.36 ± 0.37 | 2.4 ± 0.3 | – | – |
| SRIYGQAMAIINGSLYVFGGTTGY [KLHDC10] | 2.92 ± 0.3 | 2.87 ± 0.6 | – | – |
| SRRREQSSSRNSHLVQHQHPNSRK [ZNF8] | 5.14 ± 0.46 | 5.41 ± 0.075 | – | – |
| SSGHQNRRFSSEDLEDPLGGLLSY [FBF1] | 3.6 ± 0.48 | 3.89 ± 0.36 | – | – |
| SSGLQDVTGPDNGVRESETEQGFG [NFE2L1] | 5.6 ± 0.17 | 5.39 ± 0.35 | – | – |
| SSIGRLFGKKEKGRLIQLSRDGAT [PPFIA4] | 3.19 ± 0.48 | 3.38 ± 0.54 | – | – |
| SSLEFTELLTLVNRKVSQRRVDFC [CASP6] | 2.37 ± 0.43 | 2.32 ± 0.087 | – | – |
| SSPVDLVTATDQKVEKMLISSIKE [IMPA1] | 4.38 ± 0.15 | 4.28 ± 0.1 | – | – |
| SSSSGPGHGEPDVLKDELQLYGDA [TMEM40] | 5.3 ± 0.15 | 5.32 ± 0.19 | – | – |
| SSSVSISHSASATGNVCIEEIDVD [LMNB1] | 5.38 ± 0.15 | 5.4 ± 0.21 | – | – |
| SSTGNTALTYACAGGYVDVVKVLL [ANKRD17] | 2.07 ± 0.55 | 2.23 ± 0.3 | – | – |
| SSWDIDGRATKRRKKSGDLKKAKV [FBXO34] | 4.8 ± 0.29 | 4.79 ± 0.11 | – | – |
| STGTSRWPSAKSAGWTLATLGEQG [SCNN1D] | 3.17 ± 0.16 | 3.16 ± 0.31 | – | – |
| STMRRMALRPTAFSGCLNCSKVSE [EMID1] | 2.5 ± 0.21 | 3.13 ± 0.62 | – | – |
| STSLSFLDSCNSLTPKSTPVKTLP [MYBL2] | 3.9 ± 0.13 | 3.97 ± 0.36 | – | – |
| SVKIPVRNHGILMETHKELKPLLS [LYSMD4] | 2.86 ± 0.13 | 3.17 ± 0.36 | – | – |
| SVLMGHGVCMGLVAAACACGFTVA [OR10K2] | 2.9 ± 0.45 | 3.08 ± 0.41 | – | – |
| SVPPVAGAPSVGQPGAGFGMPPAG [SNAP91] | 4.38 ± 0.24 | 4.38 ± 0.058 | – | – |
